Measured values taken from the supplement of paper PMC10126150.
± gives the standard deviation of the averaged measurements.

Tested on: ATP
Assay: switch fluorescence ratio, 500 uM ATP over buffer (Cy3 cluster intensity, sum of 5 cycles each) (fold (ratio)); higher = stronger signal-on switching upon ATP binding; sequences stand for … in TCGTCGGCAGCGTCAGATGTGTATAAGAGACAGTTTTTTTTTTTTTTTTTTTTTTTTT…TC
Details: aptamer strand: ATP DNA aptamer (quencher-CACCTGGGGGAGTATTGCGGAGGAAGG + anchor), 100 nM annealed; ATP concentration: 500 uM
Summary of the method: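 Exposure to 500 uM ATP lasted 15 min at 22 °C before imaging, and a selection-buffer image was taken beforehand, for Cy3-labelled switching-strand clusters on a modified Illumina MiSeq flow-cell annealed to 100 nM quencher-labelled ATP aptamer. Five buffer/ATP cycles were run with NaOH stripping and re-annealing between them. The fluorescence ratio per cluster is summed target-cycle over summed buffer-cycle Cy3 intensity, averaged per switch-domain sequence. Clusters outside 100-1000 RFU were excluded.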

Sequence | switch fluorescence ratio
TTGGGATGAG | 1 ± 0.019
GATGAAATTG | 0.953 ± 0.045
TCGGGAGGGT | 1.02 ± 0.023
TTTTGTTTCG | 1.01 ± 0.028
TTTTTTTCTC | 0.992 ± 0.056
GCTAATTTTT | 0.996 ± 0.018
AAGGCTGAGG | 0.985 ± 0.018
TTGGCATAGT | 0.989 ± 0.031
TTGGGGAACA | 1.014 ± 0.008
GGATTAATG | 1.1 ± 0.12
CAATGGCCTG | 0.984 ± 0.013
TTTTGTTTTC | 1.11 ± 0.23
AGTGTCGTGC | 1 ± 0.025
TAATAGTATA | 1 ± 0.013
AATTACGGTG | 1.05 ± 0.022
TCAGTAATGA | 1.0075 ± 7.1e-05
GAGGGGTGCA | 0.992 ± 0.015
ACCGTGAGGC | 1.02 ± 0.088
TCATACTTTT | 1.01 ± 0.026
GCTGTTTTTT | 1 ± 0.044
CCAGCTAGTT | 1.05 ± 0.086
ATTTATTTGC | 1.01 ± 0.022
CCGTGGGTTT | 1.059 ± 0.0031
ACTGGTAAGG | 1.009 ± 0.0053
ACTATGGTAA | 0.9704 ± 0.008

Sequence | switch fluorescence ratio
GAGGAAAGGG | 0.989 ± 0.013
AAGGGAATTA | 0.986 ± 0.015
ATGAGTTGTA | 1.01 ± 0.012
AAAAGTAATT | 0.985 ± 0.021
CGGTGGGGTA | 1.01 ± 0.033
AATAAGAAGG | 0.999 ± 0.013
AGTAGGGTTG | 0.957 ± 0.011
TCTAAGTCTT | 0.98 ± 0.042
AGGTTGGTCG | 0.974 ± 0.064
ATTGGCGTAT | 0.987 ± 0.026
ATGATAGTCG | 0.993 ± 0.013
ACGAAGAAGT | 1.012 ± 0.0048
AGTACATGAT | 1.02 ± 0.025
TTGTCGGGTG | 1.03 ± 0.089
TGATTTTTAC | 1.08 ± 0.092
CAATAGATGG | 0.999 ± 0.016
TCCAAGACGA | 1.34 ± 0.23
TTTTATTTTT | 0.997 ± 0.028
GATGGGCTAA | 1.04 ± 0.022
CGCTGACAAG | 0.9916 ± 0.0099
TTGGGCCCGC | 1.007 ± 0.0012
TTTTGGGTTA | 0.992 ± 0.043
ATAATTTTAT | 1.08 ± 0.13
AAACATGGTG | 1.03 ± 0.022
GGGCTCATGG | 1.042 ± 0.0061

Sequence | switch fluorescence ratio
TATTAAGGAT | 1 ± 0.031
TTAAAATGCT | 0.978 ± 0.011
AGGGTTTGCG | 1.04 ± 0.042
ACTGTGTGTT | 1.01 ± 0.025
AATGTGTCCC | 0.991 ± 0.041
GAGCGTGACG | 1 ± 0.045
CAATGGGGTT | 1.02 ± 0.027
GGGATCGGTT | 0.982 ± 0.034
TCTTGTATAA | 0.9758 ± 0.0029
TTTTGAATCT | 0.953 ± 0.033
CGATCGGTGG | 1.01 ± 0.058
AGAAGTGGGG | 0.989 ± 0.039
CTAATCTAGC | 1.045 ± 0.0017
CGGGATCGTC | 0.977 ± 0.024
GAGTACTAGT | 1.015 ± 0.0072
GCCGTTGTGC | 0.984 ± 0.069
GTGGTCGGGT | 0.974 ± 0.044
TAAGTCCTGT | 0.998 ± 0.033
AAGTCCGGGG | 0.9698 ± 0.0013
AAAACGGATT | 0.977 ± 0.014
AGAATCGAAG | 0.994 ± 0.0041
TAAAAAATTC | 1.03 ± 0.04
GACTCGAGGG | 0.99 ± 0.083
CGGAACTGGT | 1.04 ± 0.058
CAACTCTTTT | 0.998 ± 0.038

Sequence | switch fluorescence ratio
TTACATAATT | 1.02 ± 0.044
GGGGGCTAAG | 1.026 ± 0.0039
TTTTCCCGAA | 0.967 ± 0.026
GCTGTGAGTT | 0.9821 ± 0.006
CTTGCCTCAG | 1.021 ± 0.0076
GGGAAGAGTG | 0.993 ± 0.02
ATGCAGACGA | 1.1 ± 0.013
TTTGTGGATG | 0.985 ± 0.03
ATTCAAGGTT | 0.973 ± 0.024
GGATAAGGAG | 0.99 ± 0.051
ATACCGAGTG | 0.991 ± 0.029
AGTGAGGGTA | 0.983 ± 0.031
TTGACAGTAA | 1.08 ± 0.014
CTTTTTTTGG | 1 ± 0.022
GAGAGGTTGT | 1 ± 0.024
GGAGAGGGGG | 0.982 ± 0.027
CATATCCAGG | 1.34 ± 0.017
CAGTTTTGGC | 1.01 ± 0.025
CTCAATACTT | 1.786 ± 0.0034
TTGACGCGTG | 0.982 ± 0.023
GGAGGGACGG | 1.029 ± 0.009
GGGGTCGCTG | 0.965 ± 0.013
GACGCGGCGT | 1.02 ± 0.029
GGCCAGGGTG | 2.29 ± 0.07
AAGTACTTTT | 1.2 ± 0.055

Sequence | switch fluorescence ratio
TTTATCATTG | 0.9909 ± 0.0086
TGGGGAGGGA | 0.983 ± 0.033
ATTGGGCAGG | 1.04 ± 0.017
GGGCGACGGC | 1.04 ± 0.047
CTGGCAACGA | 1.06 ± 0.013
TTGTGGGTAG | 1.02 ± 0.043
TTTTAGGTAG | 0.99 ± 0.0029
CATCGGTGCG | 1.08 ± 0.19
GGTACGTTGG | 1.02 ± 0.0078
CGCCGGGTCC | 1.05 ± 0.02
TAGCTATGTG | 0.982 ± 0.038
CGAGGATAAA | 0.994 ± 0.027
TGTTTGTGAT | 1.003 ± 0.0098
CGAATTGGTG | 1.03 ± 0.04
TGCCCCGCCT | 0.996 ± 0.044
GCCATTAGAC | 1.04 ± 0.049
CGGGGAACTC | 1.06 ± 0.056
ATTTGGTGGG | 0.97 ± 0.05
TCGAGATTAG | 0.9942 ± 0.0086
TTCTGCTTAG | 2.04 ± 0.039
GGGGCTTGCG | 0.948 ± 0.045
CTTCATGCTT | 1.02 ± 0.048
CAGTACGGTT | 1 ± 0.037
TAGGTAGGGG | 0.99 ± 0.036
AAGGCGAGGA | 1.043 ± 0.0043

Sequence | switch fluorescence ratio
TACTGGGCTT | 1.024 ± 0.0014
TCGTTGGTTG | 1.02 ± 0.051
GATAGGAAAT | 0.977 ± 0.036
GCTTTATCGG | 0.965 ± 0.025
TCCGGGGGGG | 1.06 ± 0.094
GGATAAAAAT | 1.02 ± 0.025
AATGGGGTTT | 0.9689 ± 0.0085
GGGGGATTTC | 1.12 ± 0.26
GGTGGTAGGC | 1 ± 0.046
AAGGGATACG | 1.02 ± 0.015
CCATTCTTGG | 0.977 ± 0.018
CATGTCAAGC | 1.05 ± 0.024
AACGGAAAGG | 1.01 ± 0.017
ATGGTTTATG | 0.9812 ± 0.0077
TCTCGAGGGA | 0.981 ± 0.01
GCGTATTATT | 1.001 ± 0.0043
TTATAGTGTT | 0.994 ± 0.012
AAGGCAAATT | 0.986 ± 0.026
TGACTTCGCT | 1.2 ± 0.18
TCGACGATTC | 1.52 ± 0.14
GAGTTTTGGA | 1.02 ± 0.026
TTACGGAAT | 1.1 ± 0.14
AGCTCCTCAT | 1.1 ± 0.03
GATGGAGGGG | 0.9965 ± 0.0039
TAGGGACTAG | 1.02 ± 0.015

Sequence | switch fluorescence ratio
TAGTCTGCGT | 1.04 ± 0.037
GGTGTAAGAA | 1.002 ± 0.0085
TCTTTGAAGT | 1 ± 0.019
TTCGAGGAGA | 1.01 ± 0.011
GTGAGTAAGG | 0.9778 ± 0.00085
CGGGTCAGTG | 0.968 ± 0.04
GATAGGGGGT | 1.01 ± 0.061
ATATTGGGGG | 0.998 ± 0.025
TATTTTGTGA | 0.952 ± 0.018
GACAACAAGG | 1.047 ± 0.0089
TGTGTGGGGA | 1.01 ± 0.027
GAGGTACTGG | 1.018 ± 0.008
AAAGGGGTTG | 1.01 ± 0.072
AAGGTGCGGG | 0.999 ± 0.023
GAGTAACTCG | 1.007 ± 0.0067
GAAAAAAGGA | 0.981 ± 0.028
CTATCGGGTA | 0.9966 ± 0.0097
CTGGTTTAGT | 0.978 ± 0.016
AAAATGGTGT | 1.002 ± 0.0083
GGAGAGCGCG | 0.976 ± 0.067
TGGTCAACTA | 1 ± 0.02
ACGATCGGCT | 1.06 ± 0.2
TTCGATACTT | 0.9922 ± 0.0059
GTGTTGTATT | 0.988 ± 0.015
ATTTTTGGCA | 0.995 ± 0.033

Sequence | switch fluorescence ratio
GGGTGGCAGC | 0.993 ± 0.031
TTTTGATAGT | 0.991 ± 0.026
CAGAGCGGGG | 0.998 ± 0.023
GACGTTAATA | 1.41 ± 0.04
AGCATTACGT | 2.02 ± 0.089
ACCTACGAGT | 1.37 ± 0.044
ACGTTAGTCG | 0.9687 ± 0.0095
TAATTAATAT | 1 ± 0.048
ACAAGGGCAT | 1.03 ± 0.025
AAAAATGGTT | 1.02 ± 0.014
GTAACGTTAG | 0.998 ± 0.042
ATTATGCTAT | 1.052 ± 0.0094
GTTAAAAAGG | 0.998 ± 0.022
TGAGTGATTT | 1.02 ± 0.031
TAGGGTTTTC | 0.988 ± 0.045
AATAGGGTTC | 0.982 ± 0.025
TGGGCCGGTG | 1.04 ± 0.05
ATCTTCTAAG | 1.02 ± 0.03
AGTCTAGTGG | 0.985 ± 0.027
TCCATAGGGG | 1.53 ± 0.88
TTTCGTAATT | 1 ± 0.024
GGAACCGGTA | 1.02 ± 0.012
TAAAGAGTGT | 1.01 ± 0.0042
GCAGTTAGGG | 0.995 ± 0.079
CGTATTAGTA | 0.9926 ± 0.0054
